# Source: PMC7104187
# Target: T1, SauCas9 (Staphylococcus aureus, UniProt J7RUA5 1-1053)
# T1 sequence: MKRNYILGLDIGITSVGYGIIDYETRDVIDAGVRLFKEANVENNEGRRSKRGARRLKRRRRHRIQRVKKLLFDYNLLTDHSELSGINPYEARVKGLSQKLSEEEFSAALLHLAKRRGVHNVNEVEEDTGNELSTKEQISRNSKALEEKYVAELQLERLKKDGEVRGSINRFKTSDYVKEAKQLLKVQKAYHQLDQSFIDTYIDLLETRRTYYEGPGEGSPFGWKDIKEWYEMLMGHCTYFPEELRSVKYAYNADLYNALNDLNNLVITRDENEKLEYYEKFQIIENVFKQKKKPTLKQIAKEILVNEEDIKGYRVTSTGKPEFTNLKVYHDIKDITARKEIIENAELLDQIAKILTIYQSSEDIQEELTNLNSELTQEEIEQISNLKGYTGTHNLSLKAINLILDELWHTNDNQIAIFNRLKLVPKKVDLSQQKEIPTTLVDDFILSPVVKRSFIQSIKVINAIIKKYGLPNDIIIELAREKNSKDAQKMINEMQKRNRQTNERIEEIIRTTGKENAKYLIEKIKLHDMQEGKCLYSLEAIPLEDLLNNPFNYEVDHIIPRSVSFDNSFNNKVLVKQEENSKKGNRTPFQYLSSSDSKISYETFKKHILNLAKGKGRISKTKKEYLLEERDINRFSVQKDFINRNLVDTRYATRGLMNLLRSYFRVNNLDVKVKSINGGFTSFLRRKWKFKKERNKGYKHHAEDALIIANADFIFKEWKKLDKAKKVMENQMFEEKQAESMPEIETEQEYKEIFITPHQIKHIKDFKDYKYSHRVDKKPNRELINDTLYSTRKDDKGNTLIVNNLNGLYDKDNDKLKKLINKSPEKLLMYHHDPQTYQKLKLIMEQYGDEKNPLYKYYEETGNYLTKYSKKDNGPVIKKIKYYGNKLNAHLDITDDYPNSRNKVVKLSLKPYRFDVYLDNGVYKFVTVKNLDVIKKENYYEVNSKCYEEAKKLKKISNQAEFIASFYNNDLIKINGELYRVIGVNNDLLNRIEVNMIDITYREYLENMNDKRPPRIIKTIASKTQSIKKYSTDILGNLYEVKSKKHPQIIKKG
# Assay: EMSA
binder,measurement,value
EGFP sgRNA + target dsDNA (T) (mixed) RNA: GCAAGGGCGAGGAGCUGUUCACGUUUUAGUACUCUGGAAACAGAAUCUACUAAAACAAGGCAAAAUGCCGUGUUUAUCUCGUCAACUUGUUGGCGAGAUUUUU DNA 1: TGGTGAGCAAGGGCGAGGAGCTGTTCACCGGGGT DNA 2: ACCCCGGTGAACAGCTCCTCGCCCTTGCTCACCA,binding result,binds
